Test results from doi:10.1101/2025.11.19.685371.

Target: pre-formed Aβ oligomers (Aβ42) (UniProt P05067)
Assay: fluorescence correlation spectroscopy

fraction of fluorescently labeled Aβ in oligomers: 59%
Substance: pre-formed Aβ oligomers (Aβ42) (from UniProt P05067 672-713) (complex)
